Tested on: GFP mutant K8 (-2M, -1G, M1R, S2R, K3R, G4A, E5S, E6I, L7I, S65A, K79R, E90N, N149K, V163A, I167T)

Substance: mouse recombinant protein kinase A catalytic subunit (Calbiochem #539-487)
- apparent Km of phosphorylation, measured by 32P incorporation: an apparent Km of 9 µM
- estimated Km of phosphorylation, based on quenching alone: an estimated Km of 7.7 µM

— patent publication US6495664
